Results taken from the supplement of paper PMC10567573.

B1: LOC100129726 (parent)
chain: AKAADSPTRNDLESGLGHFSLRVH
B2: TFE3 (parent)
chain: FHLGLEDILMEEEEGVVGGLSGGA

Variants of: B1
Assay: protein stability index of a GFP-peptide fusion (GPS, HEK-293T) (PSI 1-6); higher = more stable
Settings: c terminus: a fixed tail appended
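Note: lentivirally expressed fusions sorted by FACS into six bins by GFP to DsRed ratio, PSI derived from sequencing read proportions per bin multiplied by bin number.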

Going from AKAADSPTRNDLESGLGHFSKRVH [L21K] to AKAADSPTRNDLESGDGHFSLRVH [L16D], the protein stability index rises from 3.5 to 3.82.

Compared with AKAADSPTRNDLESGSGHFSLRVH [L16S], QKAADSPTRNDLESGLGHFSLRVH [A1Q] is lower in protein stability index: 3.77 for the first, 3.38 for the second.

Compared with PKAADSPTRNDLESGLGHFSLRVH [A1P], AKAADWPTRNDLESGLGHFSLRVH [S6W] is lower in protein stability index: 3.17 for the first, 1.92 for the second.

First: AKAADGPTRNDLESGLGHFSLRVH [S6G]
Second: AKAADHPTRNDLESGLGHFSLRVH [S6H]
The protein stability index of the first is lower: 2.72 for the first, 2.95 for the second.

First: AKAADDPTRNDLESGLGHFSLRVH [S6D]
Second: ACAADSPTRNDLESGLGHFSLRVH [K2C]
The protein stability index of the first is higher: 3.44 for the first, 2.05 for the second.

Going from AKAADSPTRNDLESGLGHFSLRVI [H24I] to AKAADSPTRNDLESELGHFSLRVH [G15E], the protein stability index rises from 1.9 to 2.82.

Going from AKAADSPTRNDLESRLGHFSLRVH [G15R] to AKAADSPTRNDLESILGHFSLRVH [G15I], the protein stability index falls from 2.06 to 1.86.

Going from AKAADSPTRADLESGLGHFSLRVH [N10A] to AKAADSKTRNDLESGLGHFSLRVH [P7K], the protein stability index falls from 3.06 to 2.92.

Compared with AKAADSGTRNDLESGLGHFSLRVH [P7G], AKAADSPTRNDLESGLGHESLRVH [F19E] is higher in protein stability index: 2.77 for the first, 4.6 for the second.

Going from AKAADSPTRNDLESGLGVFSLRVH [H18V] to AKAADSPTRNILESGLGHFSLRVH [D11I], the protein stability index falls from 2.73 to 1.96.

First: AKAADSPTRNYLESGLGHFSLRVH [D11Y]
Second: AKAADSPTRNDLESGLGHFSLEVH [R22E]
The protein stability index of the first is lower: 2.25 for the first, 3.92 for the second.

Compared with AKAADSPTRNDLESGLGHFSLDVH [R22D], AKAADSPTRNDLESGLGHFSLNVH [R22N] is lower in protein stability index: 4.28 for the first, 3.62 for the second.

Compared with AKAADSPTRNDNESGLGHFSLRVH [L12N], AKAYDSPTRNDLESGLGHFSLRVH [A4Y] is lower in protein stability index: 4.16 for the first, 2.42 for the second.

Compared with AKAADSPTRNDLESGLGHFGLRVH [S20G], AKAADSPTRNDLESGLGHFTLRVH [S20T] is lower in protein stability index: 3.11 for the first, 3.1 for the second.

Compared with AKAADSPHRNDLESGLGHFSLRVH [T8H], AKAADSPRRNDLESGLGHFSLRVH [T8R] is lower in protein stability index: 2.63 for the first, 2.53 for the second.

Compared with AKCADSPTRNDLESGLGHFSLRVH [A3C], AKWADSPTRNDLESGLGHFSLRVH [A3W] is lower in protein stability index: 2.73 for the first, 2.21 for the second.

Variant AKAADSPTRNDLPSGLGHFSLRVH [E13P] has a protein stability index of 2.57.

Variants of: B2
Assay: as above
Settings: c terminus: a fixed tail appended

Compared with FHLGLEDILMEEEEGVVGGSSGGA [L20S], FHLGLEDILMEEEEGVVGGCSGGA [L20C] is lower in protein stability index: 4.52 for the first, 3.91 for the second.

First: FHLGLEDILMEEEEGVVGGKSGGA [L20K]
Second: FHLGLEDILMEEEEGVVGGASGGA [L20A]
The protein stability index of the first is lower: 4.55 for the first, 4.74 for the second.

Going from FHLGLEDILMEEEEGVVGGGSGGA [L20G] to FHLGLEDILMEEEEGVVGGHSGGA [L20H], the protein stability index rises from 3.98 to 4.24.

Going from FHLGLEDILMEEEEGVVGGFSGGA [L20F] to FHLGLEDILMEEEEGVVGGRSGGA [L20R], the protein stability index falls from 4.09 to 3.99.

First: FHLGLEDILMEEEEGVVGGQSGGA [L20Q]
Second: FHLGLEDILMEEEEGVVGGNSGGA [L20N]
The protein stability index of the first is lower: 4.47 for the first, 4.59 for the second.

Going from FHLGLEDILMEEEEGVVGGVSGGA [L20V] to FHLGLEDILMEEEEGVVGGMSGGA [L20M], the protein stability index falls from 4.69 to 3.19.

First: FHLGLEDILMEEEEGVVGGWSGGA [L20W]
Second: FHLGLEDILMEEEEGVVGGDSGGA [L20D]
The protein stability index of the first is lower: 3.02 for the first, 4.92 for the second.

First: FHLGLEDILMEEEEGVVGGPSGGA [L20P]
Second: FHLGLEDILMEEEEGVVGGTSGGA [L20T]
The protein stability index of the first is lower: 3.79 for the first, 4.11 for the second.

Going from FHLGLEDILMEEEEGVVGGISGGA [L20I] to FHLGLEDILMEEEEGVVGGESGGA [L20E], the protein stability index rises from 4.08 to 4.99.

Going from FHLGLEDILMEEEEGVVGGYSGGA [L20Y] to FHLGLEDILMEEEEGVVGGLVGGA [S21V], the protein stability index rises from 3.41 to 3.81.

Compared with FHLGLEDILMEEEEGVVGGLPGGA [S21P], FHLGLEDILMEEEEGVVGGLKGGA [S21K] is higher in protein stability index: 3.35 for the first, 3.48 for the second.

Compared with FHLGLEDILMEEEEGVVGGLCGGA [S21C], FHLGLEDILMEEEEGVVGGLMGGA [S21M] is higher in protein stability index: 3.48 for the first, 3.54 for the second.

Compared with FHLGLEDILMEEEEGVVGGLTGGA [S21T], FHLGLEDILMEEEEGVVGGLRGGA [S21R] is higher in protein stability index: 3.54 for the first, 3.7 for the second.

Compared with FHLGLEDILMEEEEGVVGGLEGGA [S21E], FHLGLEDILMEEEEGVVGGLGGGA [S21G] is lower in protein stability index: 4.65 for the first, 4.07 for the second.

Going from FHLGLEDILMEEEEGVVGGLWGGA [S21W] to FHLGLEDILMEEEEGVVGGLLGGA [S21L], the protein stability index rises from 2.3 to 3.01.

First: FHLGLEDILMEEEEGVVGGLAGGA [S21A]
Second: FHLGLEDILMEEEEGVVGGLIGGA [S21I]
The protein stability index of the first is higher: 3.9 for the first, 3.27 for the second.

Compared with FHLGLEDILMEEEEGVVGGLHGGA [S21H], FHLGLEDILMEEEEGVVGGLDGGA [S21D] is higher in protein stability index: 3.44 for the first, 3.95 for the second.

First: FHLGLEDILMEEEEGVVGGLNGGA [S21N]
Second: FHLGLEDILMEEEEGVVGGLYGGA [S21Y]
The protein stability index of the first is higher: 3.6 for the first, 2.77 for the second.

Compared with FHLGLEDILMEEEEGVVGGLQGGA [S21Q], FHLGLEDILMEEEEGVVGFLSGGA [G19F] is lower in protein stability index: 4.07 for the first, 2.69 for the second.

Going from FHLGLEDILMEEEEGVVGILSGGA [G19I] to FHLGLEDILMEEEEGVVGCLSGGA [G19C], the protein stability index rises from 2.87 to 3.43.

Going from FHLGLEDILMEEEEGVVGRLSGGA [G19R] to FHLGLEDILMEEEEGVVGTLSGGA [G19T], the protein stability index falls from 3.54 to 3.48.

First: FHLGLEDILMEEEEGVVGLLSGGA [G19L]
Second: FHLGLEDILMEEEEGVVGMLSGGA [G19M]
The protein stability index of the first is lower: 3.25 for the first, 3.71 for the second.

Going from FHLGLEDILMEEEEGVVGWLSGGA [G19W] to FHLGLEDILMEEEEGVVGALSGGA [G19A], the protein stability index rises from 2.18 to 3.97.

First: FHLGLEDILMEEEEGVVGSLSGGA [G19S]
Second: FHLGLEDILMEEEEGVVGPLSGGA [G19P]
The protein stability index of the first is lower: 3.28 for the first, 3.52 for the second.

Compared with FHLGLEDILMEEEEGVVGELSGGA [G19E], FHLGLEDILMEEEEGVVGKLSGGA [G19K] is lower in protein stability index: 4.32 for the first, 3.34 for the second.

First: FHLGLEDILMEEEEGVVGQLSGGA [G19Q]
Second: FHLGLEDILMEEEEGVVGVLSGGA [G19V]
The protein stability index of the first is higher: 4.09 for the first, 3.22 for the second.

First: FHLGLEDILMEEEEGVVGDLSGGA [G19D]
Second: FHLGLEDILMEEEEGVVGYLSGGA [G19Y]
The protein stability index of the first is higher: 4.69 for the first, 2.67 for the second.

Going from FHLGLEDILMEEEEGVVGNLSGGA [G19N] to FHLGLEDILMEEEEGVVGHLSGGA [G19H], the protein stability index falls from 3.84 to 3.47.

Compared with FHLGLEDILMEEEEGVVGGLSGDA [G23D], FHLGLEDILMEEEEGVVGGLSGMA [G23M] is lower in protein stability index: 4.04 for the first, 3.19 for the second.

First: FHLGLEDILMEEEEGVVGGLSGHA [G23H]
Second: FHLGLEDILMEEEEGVVGGLSGVA [G23V]
The protein stability index of the first is lower: 3.43 for the first, 3.98 for the second.

In the case of FHLGLEDILMEEEEGVVGGLSGCA [G23C], the protein stability index is reported as 3.21.
